The target in assay [1] is LolA from Vibrio cholerae (V. cholerae) (UniProt A5F2G9). Nature of the assay: ITC.
For assay [2], the target named is LolA from Porphyromonas gingivalis (P. gingivalis). Briefly: ITC. A general note: In ITC the heat of successive injections is recorded.

Results on 2 substances are retold here after article PMC11694511.

Usually Kd stands for the constant that tells how readily two partners part at equilibrium. A low value points to higher affinity. In the case of polymyxin B (peptide), in assay [1], the Kd turned out to be 56 µM.

As to colistin (peptide), the Kd in assay [1] was found to be 91 µM; in assay [2], 33 µM.
